Measured values taken from IntAct's records for PubMed 22327218.

Target: anm5_human PRMT5 (UniProt O14744)
Sequence (O14744 whole entry): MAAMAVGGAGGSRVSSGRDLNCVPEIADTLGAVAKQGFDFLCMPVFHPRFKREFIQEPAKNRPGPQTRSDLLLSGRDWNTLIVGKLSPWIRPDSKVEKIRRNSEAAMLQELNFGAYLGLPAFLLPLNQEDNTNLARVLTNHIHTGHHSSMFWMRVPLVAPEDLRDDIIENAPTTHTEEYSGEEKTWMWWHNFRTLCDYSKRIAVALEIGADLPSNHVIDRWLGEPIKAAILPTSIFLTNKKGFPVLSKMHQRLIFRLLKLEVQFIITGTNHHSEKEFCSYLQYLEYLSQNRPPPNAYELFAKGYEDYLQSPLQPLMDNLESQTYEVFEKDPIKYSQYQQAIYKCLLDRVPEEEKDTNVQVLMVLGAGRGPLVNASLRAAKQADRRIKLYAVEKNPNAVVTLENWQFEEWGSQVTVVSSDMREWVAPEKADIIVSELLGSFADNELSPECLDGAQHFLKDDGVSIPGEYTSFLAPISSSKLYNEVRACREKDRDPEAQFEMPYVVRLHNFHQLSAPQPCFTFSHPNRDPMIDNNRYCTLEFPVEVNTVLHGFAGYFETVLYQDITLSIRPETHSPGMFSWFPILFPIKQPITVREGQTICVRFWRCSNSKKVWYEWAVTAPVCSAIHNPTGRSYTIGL

Sequence of Transcription factor E2F1 (Homo sapiens), Q01094 R113K (Q01094 whole entry R113K): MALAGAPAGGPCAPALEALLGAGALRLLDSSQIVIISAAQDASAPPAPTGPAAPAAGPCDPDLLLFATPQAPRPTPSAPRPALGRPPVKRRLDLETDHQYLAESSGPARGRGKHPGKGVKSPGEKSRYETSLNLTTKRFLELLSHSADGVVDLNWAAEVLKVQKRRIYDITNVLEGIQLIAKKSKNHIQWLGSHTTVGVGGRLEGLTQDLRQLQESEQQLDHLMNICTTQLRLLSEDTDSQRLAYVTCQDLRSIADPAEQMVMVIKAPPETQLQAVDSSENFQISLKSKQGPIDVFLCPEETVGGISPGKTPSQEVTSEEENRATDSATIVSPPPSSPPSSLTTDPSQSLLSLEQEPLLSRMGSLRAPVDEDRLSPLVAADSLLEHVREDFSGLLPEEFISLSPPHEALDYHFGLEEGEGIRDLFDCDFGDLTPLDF
Sequence of Transcription factor E2F1 (Homo sapiens), Q01094 R109K (Q01094 whole entry R109K): as the sequence (Q01094 whole entry R113K) above, with R109K, K113R counted along it
Sequence of Transcription factor E2F1 (Homo sapiens), Q01094 R111K (Q01094 whole entry R111K): as the sequence (Q01094 whole entry R113K) above, with R111K, K113R counted along it

effect of a mutation on the interaction | Substance
disrupting interaction | Transcription factor E2F1 (Homo sapiens), Q01094 R109K
disrupting interaction | Transcription factor E2F1 (Homo sapiens), Q01094 R111K
disrupting interaction | Transcription factor E2F1 (Homo sapiens), Q01094 R113K
